Test: yeast display, Sf9 membrane polyspecificity reagent, FACS + sequencing; frameworks hold sequencing errors
Procedure, shortened: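 Galactose-induced (36–48 hours) yeast carrying a synthetic nanobody display library were exposed to 10% biotinylated, detergent-solubilized Sf9 membrane reagent at 4 °C for 1 hour. FACS followed streptavidin microbead enrichment, using low and high (top ~1%) gates for expression (anti-HA) and reagent binding (streptavidin). Colony PCR, MiSeq 2 × 250 sequencing and CDR-length filtering followed. Labels for polyreactivity reflect the gate of origin.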

Sequence	polyreactivity (PSR sort gate)
QVQLVESGGGLVQAGGRLRFSCAASGNTFPHNTMGWYRKAPGKERELVSTNYADSVKGRFTISRDNAKNSVYLQMNSLKPEDTAVYYCHADGTFEYDYWGQGTQVTVSS	low polyreactivity
QVQLVDSGGGLVQAGGSLRLSCAASGRTFRGNVMGWYRQAPGKEREFVAAITKSDGSTYYADSVKGRFTISRDNAKNTVYLQKNSLKPEDTAVYYCAARTARTGWPWFRYDYWGQGTQVTVSS	low polyreactivity
QVQLVESGGGLVQAGGSLRLSCAASGFIIYSYAMGWYRQAPGKERELVAVISSRGGTTYYADSVKGRFTISRDNAKNTVYLQMNSLKPEDTAVYSCNVDRLGQRSDYWGQGTQVTVSS	low polyreactivity
QVQLVESGGGLVQAGGSLRLSCAASGSILHPNGMGWYRQAPGKERELVAAITINGDSTYYADSVKGRFTISRDNAKNTVYLQMNSLKPEDTAVYYCAVDGWPTGWYYYWGQGTQVTVSS	low polyreactivity
QVQLVETGGGLVQAGGSLRLSCAASGRTYLIYAMGWYRQAPGKERELVAAIRDRGATTYYADSVKGRFTISRDNAKNTVYLQMNSLKPEETAVYYCAARNGAYPALKEGDYWGQGTQVTVSS	high polyreactivity
QVQLVESEGGLVQAGGSLRLSCAASGRTYYAMGWYRQAPGKERELVAAISGTGASTYYADSVKGRFTISRDNAKNTVYLQMNSLKPEDTAVYYCAAEWFYYNTQQWFDYWGQGTQVPVSS	low polyreactivity
QVQLVESAGGLVQAGGSLRLSCAASGFTFYYYTMGWYRQAPGKETELVAAITWRGGSTNYADSVKGRFTISRDNAKNTVYLQMNSLKPEDTAVYYCAAVSYWFWPGMDYWGQGTQVTVSS	low polyreactivity
QVQLVESGGGLVQAGGSLRLSCAASGSIFNHYAMGWYRQAPGKERELVAVIPSGGSTNYADSVKGRFTISRDNAKNTVYLQMNSLKPEDTAVYYCAADTYLSAVDYYGWAHDYWGQGTQVTVSS	low polyreactivity
QVQLVESGGGLVQAGGSLRLSCSASGSIFVWYDMGWYRQAPGKERELVATISLSGVSTYYADSVKGRFTISRDNAKNTVYLQMNSLKPEDTAVYYCNKDDPVDGPLYFRKYDYWGQGTQVTVSS	low polyreactivity
QVQLVESGGGLVQAGGSLRLSCAASGRIFYTYAMGWYRQAPGKERELVAAINRSGSSTYYADSVKGRFTISRDNAKNTVYLQMNSLKPEDTAVYYCNAQSYRYYGWVLTDVDYWGQGTQVTVSS	low polyreactivity
QVQLVESGGGLVQAGGSLRLSCAASGIIFYVNDMGWYREAPGKVRELVADISGGTSTNYADSVKGRFTISRDNAKNTVYLQMNSLKPEDTAVYYCATAFIVPFPGSDYWGQGTQVTVSS	low polyreactivity
QVQLVESGGGLVQAGGSLSLSCAASGIIFYDYAMGWYRQAPGKERELVAAITSGGSTNYADSVKGRFTISRDNAKNTVYLLMNRLKPEVTAVYYCAATYWSWISLRFYWGLGTQVTVSS	low polyreactivity
QVQLVESGGGLVQAGGSLRLSCAASGRIFLTNTMGWYRQAPGKERELVAGISRGGRTYDADSVKGRFTISRDNAKNTVYLLKNSLKPEDTAVYYCAGRHRTPIYPYKRDYWGQGTQVSVSS	high polyreactivity
QVQLVESGGGLVQAGGSLSLSCAASGFIFPGNAKGWYRQAPGKERELVATISSGGSTKYADSVKGRFTISRDNANNTVYLQMNSLKPEDTAVYYCAARVYLGVFDYYYWGQGTQVTVSS	low polyreactivity
QVQLVESGGGLVQAGGSLRLSCAASGFTFTIYAMGSNRPAPGKERELVATISGRAGRTYYADSVKGRFTISRDNAKNTVYLQMNSLKPEDPAVYYCTAGQRRYPGLSYYWGQGTQVTVSS	high polyreactivity
QVQLVESGGGLVQAGGSLRLSCAASGRIFDQNAMGWYRQAPGKDRELVAAISSSGGRTYYADSVKGRFTISRDNAKNPVYLQMNSLKPEDTAVYYCNKDRTVTTYEYWGQGTQVTVSS	high polyreactivity
QVQLVESGGGLVQAGGSLRLSCAASGITFRNYAMGWYRPAPGKERELVADITTGGSTYADSVKGRFTISRDNAKNTVYLQMISLKPEDTAVYYCAARYFSYYILRRIYPVREDYWGQGTQVTVSS	low polyreactivity
QVQLVESGGGLVQAGGSLRLSCAASGSIFPVYAMGWYRQAPGKERELVAAISLRAGNTYYADSVKGRFTISRDNAKNTVYLQMNSLKPEDTAVYYCAVEWFRSTTIFDYWGQGTQVTVSS	high polyreactivity
QVQLVESGGGLVQAGGSLRLSCAASGSTFYRNAMGWYRQAPGKERELVAGISYGGGSTYYADSVKGRFTISRDNAKNTVYLQMNSLKPEDTAVYYCYAVWVKRHYYYWGQGTQVTVSS	low polyreactivity
QVQLVESGGGLVPARGSLRLSCAASGRIFRYYAMGWYRQAPGKERELVAAISGNGGRTSYADSVKGRFTISRDNAKITVSLQMTSLKPEDTAVYYCNAASVNGCRDFDYWGQGTQVTVSS	high polyreactivity
QVQLVESGGGLVQAGGSLRLSCAASGRNFSYYAMGWYRQAPGKERELVAAISWNGGSTYYADSVKGRFTISRDNAKNTVYLQMNSLKPEDTAVYYCAVLPHYEYDYWGQGTQVTVSS	high polyreactivity
QVQLVESGGGLVQAGGSLRLSCAASGLIFQSYAMGWYRQAPGKERELVAVITWSGTSTYADSVKGRFTISRDNAKNTVYLQMNSLKPEDTAVYYCAASKYGSFTNFGYWGQGTQVTVSS	low polyreactivity

Sequence	polyreactivity (PSR sort gate)
QVQLVESWGGLVQAGGSLRLSCAASGSIFYRYAMGWYRQAPGKEREFVAAIRWRGGSTYYADSVKGRFTISRDNAKNTVYLQMNSLKPEDTAVYYCAAPTVQRYNYWGQGTQVTVSS	high polyreactivity
QVQLVESGGGLVQAGGSLRLSCAASGFTFYGYAMGWYRQAPGKERELVAAISSSGTSTYYADSVKGRFTISRDNEKNTVYLQMNSLKPEDTAVYYCAKDFYRRYYSWGQGTQVTVSS	high polyreactivity
QVQLVESGGGLVQAGGSLRLSCAASGSTFYSNSMGWYRQAPGKERELVAAIDWGGGSTYYADSVKGRFTISRDNETNTVYLQMNSLKPEDTAVYYCAKKYYKVHKFDYWGQGNQVTVSS	low polyreactivity
QVQLVESGGGLVQAGGSLRLSCAASGSTFGAYTMGWYRQAPGKERELVAAISSDGSTYYADSVKGRFTISRDNAKNTVYLQMNSLKPEDTAVYYCNARYHFYGRADYSYYYLFDYWGQGTQVTVSS	low polyreactivity
QVQLVESGGGLVQAGGSLRLSCAASGRILYHYAMGWYRQAPGKERELVAAITFSGDTTYYADSVKGRFTISRDNAKNTVYLQMNSLKPVDTAVYYCNTVYYWNYVSRLYDYWGQGTQVTVSS	high polyreactivity
QVQLVESGGGLVQAGGSLRLSCAASGRIFVRNAMGWYRQAPGKERELVADITNGGSTNYADSVKGRFTISRDNAKNTVYLQMNSLKPEYTAVYYCAADTLGVYDGDYWGQGTQVTVSS	low polyreactivity
QVQLVESGGGLVQAGGSLRLSCAASGFTFYVNAMGWYRQAPGKERELVAAISSSGTRTYYADSVKGRFTISRDNAKNTVYLQMNSLKPEDTAVYYCAARGQAYSGDRMYYWGQGTQVTVSS	high polyreactivity
QVQLVESGGGLVQAGGSLRLSCAASGSIFVGNAMGWYRQAPGKERELVAAINSGGSTNYADSVKGRFTISRDNAKNTVYLQMNSLKTEDTAVYYCAADDDYCRILQGDQSDDYWGQGTQVTVSS	low polyreactivity
QVQLVESGGCLVQAGGSLRLSCASSGSTFSPNDMGWYRQAPGKESELVADISNYADSVKGRFTISRDNAKNTVYLQMNSLKPEDTAVYYCAAEWRGDRYRLYVVSWWYDYWGQGTQVTVSS	low polyreactivity
QVQLVESRGVLVQAGGSIRLSCAASGFSIDYYAMGWYRPAPGKERELVAAITTSGGRTYYADSVKGRFTIARDYAKNTVYLQMNSLKPEDTAVYYCAVVTWIYGTRFNYWGQGTQVTVSS	high polyreactivity
QVQLVESGGGLVQAGGSLRLSCAASASTFWRYAMGWYRQAPGKERELVAAISWNGGSTYYADSVKGRFTISRDNAKNTVYLQMNSLKPEDTAVYYCARGYSWSVGYPRVQDMDYWGQGTQVTVSS	high polyreactivity
QVQLVESGGGLVQAGGSLRLSCAASGIIFAWYAMGWYRQAPGKERELVAAISWSGGSTYYADSVKGRFTISRDNAKNTVYLQMNSLKPEDTAVYYCAADSDYGGYDYWGQGTQVTVSS	high polyreactivity
QVQLVESGGGLVQAGGSLRLSCAASGITFRYYAMGRYRQAPGKERELVAAITRSGSTTYADSVKGRFTISRDNAKNTVYLQMNSLKPVDTAVYYCAVDYYYLTGGVDYWGQGTQVTVSS	low polyreactivity
QVQLVESGGGLVQAGGSLRLSCAASGRIFRTNAMGWYRQAPGKERELVAAISDSGADTSYADSVKGRFTISRDNAKNTVYLQMNSLKPEDTAVYYCNRGRVYYRYLKDYDYWGQGTQVTVSS	low polyreactivity
QVQLVESGGGLVQAGGSLRLSCAASGSTFRDNAMGWYRQAPGKERELVAAISRRGGNTYYADSVKGRFTISRDNAKNTVYLQMNSLKPEDTAVYYCAAEVKTSYSYTHDGYWGQGTQVTVSS	high polyreactivity
QVQLVESGGGLVQAGGSLPLSSAASGLIFSWYAMGWYRQAPAKDSELVAAIDQSGDSTYYADSVKGRFTISRDNAKNTVYLQMNSLKPEDTAVYYCAAQSYDYWYDYDYWGQGTQVTVSS	high polyreactivity
QVQLVESGGGLVQAGGSLRISCAASGIIFALYAMGWYRQAPGKERELVAAISWSGDRTYYADSVKGRFTISRDNAKNTVYLQMNSLKPEDTAVYYCAADDYTADAVQRFYYWGQGTQVTVSS	low polyreactivity
QVQLVESGGGLVQAGGSLRLSCDASGITFDDYSRGWYRQAPGKERELVAAISGSGGSTYYADSVKGRFTISRDNAKNTVFLQMHSLKPEDTAVYYCAASGPEGQYLWYDYWGKGTQVTVSS	high polyreactivity
QVQLVESGGGLVQAGGSLRLSCAASGFIFTDNAMGWYRQAPGKEREFVAAITYSGGSTYYADSVKGRFTISRDNAKNTVYLQMNSLKPEDTAVYYCNKDVFPAPGGVTAYEYEYWGQGTQVTVSS	low polyreactivity
QVHLVESGGGLVQAGGSLRLSCAASGSTFDPNAMGWYTQAPGKERELVAAISYTGGRTYYADSVKGRFTISRDKAKNTVYLQMNSLKPEATAVYYCAVLVVGSPTQDEPYVSGVEHDYWGQGTQVTVSS	low polyreactivity
HVQLVESGGGLVQAGGSLRLSCAASGSTFYNNAMGWTRQAPGKERELVAAITSSVGSTQYADSVKGRFTISRDKAKNTVYLPMNSLKPADTAVYYCAATFGYGRYGYWGQGTQVTVSS	low polyreactivity
